Measured values reported in EP3196312B1, “EFFICIENT CONVERSION OF METHYLGLYOXAL INTO HYDROXYACETONE USING NOVEL ENZYMES AND APPLI CATIONS THEREOF” (Metabolic Explorer, priority 2016, dated 2017).

Columns and labels:
CC(=O)C=O [1] = assay: Methylglyoxal reductase kinetic parameters of purified enzyme (NAD(P)H consumption at 340 nm); assay type: biochemical, Escherichia coli; conditions: other: substrate methylglyoxal 0.1-40 mM, cofactor NADH, 100mM MES-KOH (pH6.5) 0.1mM FeSO4 30mM ammonium sulfate, 30°C, pH 6.5
Description: For strain 14, the purification protocol was previously described in patent application WO 2015/173247. Table 3: Protein storage buffer
(§1) Methylglyoxal reductase activity (MGR) was determined by measuring the consumption of NAD(P)H at 340 nm on a spectrophotometer at 30°C (λ340 = 6290 M^-1 cm^-1). The reaction mixture (1mL) containing assay buffer and purified enzyme was incubated for 5 min at 30°C. Then, 0.1-40 mM methylglyoxal was added to start the reaction. One unit of enzyme activity was defined as the amount of enzyme catalyzing the decrease of 1µmol of NAD(P)H per min. Kinetic parameters were determined with Sigmaplot.

CC(=O)C=O [2] = assay: as above; assay type: biochemical, Escherichia coli; conditions: other: substrate methylglyoxal 0.1-40 mM, cofactor NADPH, pH 7.5
Description: Except for the strain 18, the proteins were purified from the crude cell-extract by affinity on a Profinity column (BIORAD, Bio-Scale Mini Profinity exact cartridge 5 ml) according to the protocol recommended by the manufacturer. The crude extract was loaded on a 5 ml Profinity exact cartridge equilibrated with 100 mM potassium phosphate pH 7.6. The column was washed with 10 column volumes of the same buffer and incubated 30min with 100 mM potassium phosphate pH 7.6, 100 mM fluoride at room temperature. The protein was eluted from the column with 2 column volumes of 100 mM potassium phosphate pH 7.6. The tag remained tightly bound to the resin and the purified protein was released. The fractions containing the protein were pooled, concentrated and loaded on a gel filtration column (Superdex 200 10/300 GL column, GE Healthcare) equilibrated with different storage buffers (Table 3). Protein concentration was measured using the Bradford protein assay.
as §1

Escherichia coli GldA (glycerol dehydrogenase) variant GldA*(A160T), SEQ ID NO: 17 (Escherichia coli K-12; A160T)
Km (CC(=O)C=O [1]): 3.17 mM | kcat/Km (CC(=O)C=O [1]): 7800 M⁻¹ s⁻¹

Escherichia coli YdjG variant YdjG*(D232E), SEQ ID NO: 101 (Escherichia coli K-12; D232E)
Km (CC(=O)C=O [2]; 20mM Hepes (pH7.5), 30°C): 3.25 mM | kcat/Km (CC(=O)C=O [2]; 20mM Hepes (pH7.5), 30°C): 10 M⁻¹ s⁻¹

Escherichia coli YqhD variant YqhD*(G149E), SEQ ID NO: 9 (Escherichia coli K-12; G149E)
Km (CC(=O)C=O [2]; 20mM Hepes (pH7.5) 0.1mM ZnSO4, 30°C): 2.92 mM
